In publication PMC3228903 one finds Km, kcat and kcat/Km data, which are given here for 3 proteins.

Substrate in data set [1]: NCCC(=O)c1ccccc1N
The data set can be described thus: Steady-state substrate oxidation and pH dependence, WT MAO B. Type of data set: biochemical, human. The note with it: other: WT MAO B, pH 7.5.

Substrate in data set [2]: NCCc1ccccc1
The data set is described as above. Type of data set: biochemical, human. To be noted: other: WT MAO B, pH 7.5.

Substrate in data set [3]: NCc1ccccc1
The data set is described as follows: purified protein, by the assay type. The note with it: pH 7.5.

Substrate in data set [4]: NCCC(=O)c1ccccc1N
The data set is described as follows: Steady-state substrate oxidation and pH dependence, Ile199Ala MAO B. Type of data set: biochemical, human. To be noted: other: I199A, pH 7.5.

Substrate in data set [5]: NCCc1ccccc1
The data set is described as above. Type of data set: biochemical, human. To be noted: other: I199A, pH 7.5.

Substrate in data set [6]: NCCC(=O)c1ccccc1N
The data set is described as follows: Steady-state substrate oxidation and pH dependence, Ile199Ala/Tyr326Ala MAO B. In kind it is biochemical, human. The note with it: other: I199A-Y326A, pH 7.5.

Substrate in data set [7]: NCCc1ccccc1
The description is as above. In kind it is biochemical, human. To be noted: other: I199A-Y326A, pH 7.5.

Positions count from the first letter of the chain named. Numbers in names are those of the source.

B1: WT MAO B (Homo sapiens) (protein)
chain: MSNKCDVVVVGGGISGMAAAKLLHDSGLNVVVLEARDRVGGRTYTLRNQKVKYVDLGGSYVGPTQNRILRLAKELGLETYKVNEVERLIHHVKGKSYPFRGPFPPVWNPITYLDHNNFWRTMDDMGREIPSDAPWKAPLAEEWDNMTMKELLDKLCWTESAKQLATLFVNLCVTAETHEVSALWFLWYVKQCGGTTRIISTTNGGQERKFVGGSGQVSERIMDLLGDRVKLERPVIYIDQTRENVLVETLNHEMYEAKYVISAIPPTLGMKIHFNPPLPMMRNQMITRVPLGSVIKCIVYYKEPFWRKKDYCGTMIIDGEEAPVAYTLDDTKPEGNYAAIMGFILAHKARKLARLTKEERLKKLCELYAKVLGSLEALEPVHYEEKNWCEEQYSGGCYTTYFPPGILTQYGRVLRQPVDRIYFAGTETATHWSGYMEGAVEAGERAAREILHAMGKIPEDEIWQSEPESVDVPAQPITTTFLERHLPSVPGLLRLIGLTTIFSATALGFLAHKRGLLVRV
For the protein B1, in data set [1], the Km turned out to be 27 ± 2 µM, the kcat worked out at 1.6 ± 0.0167 s⁻¹ and the kcat/Km came out at 59200 ± 4500 M⁻¹ s⁻¹. Further, in data set [2], the Km was 9.4 ± 0.9 µM, the kcat came out at 2.87 ± 0.05 s⁻¹ and the specificity constant (kcat/Km) turned out to be 300000 ± 33300 M⁻¹ s⁻¹. Moreover, in data set [3] (other: WT MAO B), the Michaelis constant (Km) amounted to 150 ± 27 µM, the kcat came out at 5 s⁻¹ and the catalytic efficiency (kcat/Km) was 33300 M⁻¹ s⁻¹.

B2: Ile199Ala MAO B (Homo sapiens; I199A) (protein)
chain: B1 chain with I199A
Consider B2, for which, in data set [4], the Km turned out to be 94 ± 8 µM, the kcat came to 1.47 ± 0.0333 s⁻¹ and the catalytic efficiency (kcat/Km) turned out to be 15600 ± 1370 M⁻¹ s⁻¹. Moreover, in data set [5], the Km is 40 ± 2 µM, the kcat amounted to 2.05 ± 0.0333 s⁻¹ and the kcat/Km was 51700 ± 3330 M⁻¹ s⁻¹. In data set [3] (other: I199A), the Michaelis-Menten constant (Km) is 2133 ± 409 µM, the kcat worked out at 3.8 s⁻¹ and the specificity constant (kcat/Km) was 1780 M⁻¹ s⁻¹.

B3: Ile199Ala/Tyr326Ala MAO B (Homo sapiens; I199A/Y326A) (protein)
chain: B1 chain with I199A, Y326A
As for B3, in data set [6], the Km is 289 ± 23 µM, the kcat was determined as 1.07 ± 0.0333 s⁻¹ and the kcat/Km came out at 3670 ± 333 M⁻¹ s⁻¹. In addition, in data set [7], the Km was found to be 703 ± 58 µM, the turnover number (kcat) turned out to be 1.83 ± 0.0333 s⁻¹ and the catalytic efficiency (kcat/Km) was found to be 2670 ± 167 M⁻¹ s⁻¹.
